From patent US7163817 (COUNCIL OF SCIENTIFIC AND INDUSTRIAL RESEARCH A NEW DEHLI …, dated 2007)

T1: human fibrin (immobilised, fibrin-Sepharose) (human, UniProt P02671 36-629; P02675 45-491; P02679 27-437)
T1 construct: Fibrin coupled to Sepharose beads; Its preparation and chain limits are not described; also called human fibrin-Sepharose
T1 sequence 1: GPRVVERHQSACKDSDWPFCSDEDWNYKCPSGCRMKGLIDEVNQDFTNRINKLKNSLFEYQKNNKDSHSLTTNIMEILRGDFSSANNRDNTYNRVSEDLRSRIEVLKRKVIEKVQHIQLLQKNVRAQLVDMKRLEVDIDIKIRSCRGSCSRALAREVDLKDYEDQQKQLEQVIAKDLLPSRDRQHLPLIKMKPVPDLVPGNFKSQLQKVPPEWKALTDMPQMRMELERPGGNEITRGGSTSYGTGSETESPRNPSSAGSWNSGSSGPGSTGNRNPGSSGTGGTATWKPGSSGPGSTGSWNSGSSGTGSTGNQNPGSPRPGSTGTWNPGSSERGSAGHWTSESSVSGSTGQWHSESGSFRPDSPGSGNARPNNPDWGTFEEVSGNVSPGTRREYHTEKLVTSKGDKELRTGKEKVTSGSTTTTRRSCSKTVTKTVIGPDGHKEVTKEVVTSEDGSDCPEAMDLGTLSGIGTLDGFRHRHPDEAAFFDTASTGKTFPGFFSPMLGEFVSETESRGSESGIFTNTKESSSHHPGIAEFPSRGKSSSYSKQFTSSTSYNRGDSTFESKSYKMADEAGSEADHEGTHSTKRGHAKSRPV
T1 sequence 2: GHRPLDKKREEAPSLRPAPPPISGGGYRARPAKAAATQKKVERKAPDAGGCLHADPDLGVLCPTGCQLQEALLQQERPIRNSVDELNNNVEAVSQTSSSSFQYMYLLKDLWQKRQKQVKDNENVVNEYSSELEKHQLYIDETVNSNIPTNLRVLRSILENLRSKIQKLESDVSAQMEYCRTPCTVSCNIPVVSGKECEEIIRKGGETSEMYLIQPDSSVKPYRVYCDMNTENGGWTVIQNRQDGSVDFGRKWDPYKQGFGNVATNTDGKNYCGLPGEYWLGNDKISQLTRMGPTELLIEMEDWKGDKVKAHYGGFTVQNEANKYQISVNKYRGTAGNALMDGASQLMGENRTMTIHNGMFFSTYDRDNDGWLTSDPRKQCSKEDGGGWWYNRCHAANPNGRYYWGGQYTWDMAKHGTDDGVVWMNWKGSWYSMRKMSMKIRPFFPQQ
T1 sequence 3: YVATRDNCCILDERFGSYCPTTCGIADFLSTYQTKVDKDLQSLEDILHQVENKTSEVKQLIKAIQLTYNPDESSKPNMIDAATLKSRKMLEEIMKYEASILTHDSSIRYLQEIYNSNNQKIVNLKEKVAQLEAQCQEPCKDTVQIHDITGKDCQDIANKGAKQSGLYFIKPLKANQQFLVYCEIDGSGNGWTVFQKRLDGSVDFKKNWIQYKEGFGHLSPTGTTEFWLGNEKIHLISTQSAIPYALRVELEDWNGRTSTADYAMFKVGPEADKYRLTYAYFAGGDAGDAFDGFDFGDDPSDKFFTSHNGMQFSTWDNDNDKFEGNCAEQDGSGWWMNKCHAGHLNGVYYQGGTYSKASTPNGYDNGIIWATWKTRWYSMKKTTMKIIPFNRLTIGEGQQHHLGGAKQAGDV

B1: SK-FBD(1,2) chimeric protein (other)
chain: MIAGPEWLLDRPSVNNSQLVVSVAGTVEGTNQDISLKFFEIDLTSRPAHGGKTEQGLSPKSKPFATDSGAMSHKLEKADLLKAIQEQLIANVHSNDDYFEVIDFASDATITDRNGKVYFADKDGSVTLPTQPVQEFLLSGHVRVRPYKEKPIQNQAKSVDVEYTVQFTPLNPDDDFRPGLKDTKLLKTLAIGDTITSQELLAQAQSILNKNHPGYTIYERDSSIVTHDNDIFRTILPMDQEFTYRVKNREQAYRINKKSGLNEEINNTDLISEKYYVLKKGEKPYDPFDRSHLKLFTIKYVDVDTNELLKSEQLLTASERNLDFRDLYDPRDKAKLLYNNLDAFGIMDYTLTGKVEDNHDDTNRIITVYMGKRPEGENASYHLAGGGQAQQMVQPQSPVAVSQSKPGCYDNGKHYQINQQWERTYLGNVLVCTCYGGSRGFNCESKPEAEETCFDKYTGNTYRVGDTYERPKDSMIWDCTCIGAGRGRISC
notes: Start residue 1 is inferred from primer MY-10, which hybridises at the natural TG site QAQQMV
B2: SK control (streptokinase, fibrin-Sepharose experiment) (other)
chain: IAGPEWLLDRPSVNNSQLVVSVAGTVEGTNQDISLKFFEIDLTSRPAHGGKTEQGLSPKSKPFATDSGAMSHKLEKADLLKAIQEQLIANVHSNDDYFEVIDFASDATITDRNGKVYFADKDGSVTLPTQPVQEFLLSGHVRVRPYKEKPIQNQAKSVDVEYTVQFTPLNPDDDFRPGLKDTKLLKTLAIGDTITSQELLAQAQSILNKNHPGYTIYERDSSIVTHDNDIFRTILPMDQEFTYRVKNREQAYRINKKSGLNEEINNTDLISEKYYVLKKGEKPYDPFDRSHLKLFTIKYVDVDTNELLKSEQLLTASERNLDFRDLYDPRDKAKLLYNNLDAFGIMDYTLTGKVEDNHDDTNRIITVYMGKRPEGENASYHLAYDKDRYTEEEREVYSYLRYTGTPIPDNPNDK

How the values were obtained:
[1] = target: T1, human fibrin (immobilised, …); experiment: refolding with fibrin-Sepharose beads; washes with binding buffer and 2 M urea, elution with 6 M urea
[2] = target: T1, human fibrin (immobilised, …); experiment: fibrin-Sepharose affinity chromatography; washes with binding buffer and 2 M urea, elution with 6 M urea

| Binder | fibrin-bound protein eluted with 6 M urea [1] | binding result [2] |
| --- | --- | --- |
| B1 | ~4 mg |  |
| B2 |  | no binding |
